One substance from paper doi:10.1101/633420 can be followed below.

The target in the assay is PRR (UniProt P10636). In words: fluorescence correlation spectroscopy.
UniProt P10636, sequence (P10636 466-561): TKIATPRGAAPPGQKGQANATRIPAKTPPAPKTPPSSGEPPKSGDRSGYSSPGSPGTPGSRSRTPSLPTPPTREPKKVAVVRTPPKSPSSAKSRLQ

tubulin, sequence (Q6B856 whole entry, looked up): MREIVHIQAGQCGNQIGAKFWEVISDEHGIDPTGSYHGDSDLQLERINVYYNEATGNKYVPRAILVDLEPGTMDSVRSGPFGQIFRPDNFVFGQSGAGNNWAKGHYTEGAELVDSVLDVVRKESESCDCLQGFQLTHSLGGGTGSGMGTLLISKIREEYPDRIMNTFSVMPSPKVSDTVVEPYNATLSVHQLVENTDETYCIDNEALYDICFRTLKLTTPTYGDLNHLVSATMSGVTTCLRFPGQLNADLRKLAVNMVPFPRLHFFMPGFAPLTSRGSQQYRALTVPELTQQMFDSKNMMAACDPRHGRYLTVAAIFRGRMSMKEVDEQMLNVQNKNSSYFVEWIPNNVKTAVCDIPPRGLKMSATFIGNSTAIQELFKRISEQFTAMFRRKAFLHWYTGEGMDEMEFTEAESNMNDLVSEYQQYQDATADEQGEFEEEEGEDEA

In the case of “tubulin (from UniProt Q6B856 1-445) (complex)”, the Kd (commonly the free concentration of one partner at which half of the binding sites on the other are occupied at equilibrium, for simple one-to-one binding) came to 900 nM and the stoichiometry N (tubulin dimers per PRR) came to 2.
